These results are taken from PMC6353796, “Thermostable Branched-Chain Amino Acid Transaminases From the Archaea Geoglobus acetivorans and Archaeoglobus fulgidus: Biochemical and Structural Characterization” (Frontiers in Bioengineering and Biotechnology, 2019).

Values joined by “and” are separate entries in the source; they are usually repeats but may differ in a detail not shown here. Equal entries are not always repeated.

Experiment [1] concerns the target GEO1900, branched-chain amino acid transaminase (BCAT) from Geoglobus acetivorans (Geoglobus acetivorans). The experiment in a line: SEC; GEO1900 on Superdex 200 in 30 mM Tris-HCl, pH 8.0, 300 mM NaCl; native molecular weight by gel filtration. A general note: SEC sorts molecules by how far they enter the pores of the column.
For experiment [2] the target is unchanged. The experiment in a line: crystal structure; GEO1900 holo form and AKG complex, space group P3(2)21, three subunits per asymmetric unit; hexamer built with symmetry mates.

The stoichiometry N is the number of molecules, sites or subunits per partner or assembly. For “GEO1900, branched-chain amino acid transaminase (BCAT) from Geoglobus acetivorans (enzyme)”, the stoichiometry N in experiment [1] was 2 and 4; in experiment [2], 6.
